According to the supplement of paper PMC9170038:

Tested on: MS2 coat protein
Assay: apparent KD of MS2 coat protein; designed switch direction (-1 OFF switch, 1 ON switch): -1; higher = weaker reporter binding
Method in brief: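 Designed RNA switches with common flanks were made on Illumina chips by stalled E. coli RNA polymerase. Titration with SNAP-549-labelled MS2 coat protein doubled from 0.7 or 1.5 nM up to 3 µM. Apparent KD is each design's median over clusters after curve-fitting normalised fluorescence.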

[1] = Eterna round: R95, input ligand: FMN 200 uM
[2] = Eterna round: R95, input ligand: microRNA oligo, concentration not stated
[3] = Eterna round: R95, input ligand: none
[4] = input ligand: microRNA oligo, concentration not stated

Row | Sequence | apparent KD of MS2 coat protein (input ligand: FMN 200 uM) [nM] | apparent KD of MS2 coat protein (input ligand: none) [nM] | apparent KD of MS2 coat protein [1] [nM] | apparent KD of MS2 coat protein [2] [nM] | apparent KD of MS2 coat protein [3] [nM] | apparent KD of MS2 coat protein [4] [nM]
1 | UAUAUACAUGAGGAUCACCCAUGUAAGGAUAUGCUUUAUUAUUAUUAUUAUUAUUAUUGCAGAAGGUACAUUAU [LRO-Excl01-05] (Eterna round: R97, puzzle: Exclusion 1) | 38.4 | 33.8 | – | – | – | –
2 | GUUAAACAUGAGGAUCACCCAUGUAAGGAUAUGCUGAGGUAGAGAUGAAGUGAAUGAAGCAGAAGGUACAAUUG [Mat - Mod of JL D55] (puzzle: Exclusion 1) | – | – | 62.6 | 81.8 | 78.8 | –
3 | GCCGUCAGUGUGAGGAUAUGCCUAUGGAUACGUAGGCAGAAGGCACAUGAGGAUCACCCAUGUCCUAAGACGGC [JL-BMX4-4.33 Eli mod] (Eterna round: R97, puzzle: Brourd's mod of Exclusion 4) | 146 | 190 | – | – | – | –
4 | UCUCGCGGGCAAGGAUAUCCUACGCUGUUCUGGCCCGUGUAUGUUACAUGAGGAUCACCCAUGUGGGAGAAGGUGCACCAGGGC [Design 40] (Eterna round: R96, puzzle: Exclusion NG 2) | 83.3 | 76 | – | – | – | 39.3
5 | AGAGAGAUAGGAUAUACGUGGUUUUCUCAGGUCUAAGUUCAACAUGAGGAUCACCCAUGUAGAAGGAUCAAAAG [EX2 C.14] (Eterna round: R97, puzzle: Exclusion 2) | 690 | 156 | – | – | – | –
6 | UCUAGGAGAGGAUAUACAUGAGGAUCACCCAUGUGCAUGAUCAGGCGUCAGUCGCACCGUAGAAGGUUCCAGAA [Eternabot (L2) Solution 40] (Eterna round: R97, puzzle: Exclusion 3) | 89.9 | 47 | – | – | – | –
7 | GUAGAGUCAGGAUAUACAAGAUCGAUAGAUCGGCGAUCCAUACAUGAGGAUCACCCAUGUAGAAGGGACUCUAC [Mat - Exclusion 2 - Eli Mod - D3] (Eterna round: R97, puzzle: Exclusion 2) | 693 | 40.2 | – | – | – | –
8 | UGUCCACAUUCCGAUACGGGACAUGAGGAUCACCCAUGUCCACAGGAUAUCGUCUUACGAGAGAUCGAGAAGGGUGGCGUGCGC [Eternabot solution 22] (Eterna round: R96, puzzle: Exclusion NG 3) | 13.1 | 14.1 | – | – | – | 9.72
9 | UCUUUGUCAGGAUAUCGUGCAUACAACGAAAGUUCUAUGUGCGAGAAGGGACAUGAGGAUCACCCAUGUUACGG [Omei Ex4 A4] (Eterna round: R97, puzzle: Exclusion 4) | 244 | 358 | – | – | – | –
10 | AUCAGCUCGUGAGGAUAUACAUGAUAGAUCGAUUAAUUAAUUAAUUUAACAUGAGGAUCACCCAUGUAGAAGGUACGAGCUGAU [ENG2/1-C3] (Eterna round: R96, puzzle: Exclusion NG 2) | – | – | – | – | – | 39.6
11 | CAGACACAUGAGGAUCACCCAUGUGAGGAUAUGCGUACGUUGUCCGUAGGCGACGUGCGCAGAAGGCGCAUUGG [JL-ex1-3.12 Eli mod] (puzzle: Exclusion 1) | – | – | – | 90.3 | – | –
12 | AAUUAUUGAUGAGGAUAUUGUGGUGAAACACCACAAGAAGGCAUUAUACACAUGAGGAUCACCCAUGUGAGCCUGAUGCUUAUG [Ex NG1 #55] (Eterna round: R96, puzzle: Exclusion NG 1) | – | – | – | – | – | 12.7
13 | GUAAAUCAUGUAGGAUAUGCGUGGCGAAGCUAUGCAGAAGGACAUGAGGAUCACCCAUGUGCUUGCGUCCGCGUACGGAUGCAA [Mat - Exclusion NG 1 - Mod of JL - D70] (Eterna round: R96, puzzle: Exclusion NG 1) | 292 | 237 | – | – | – | 124
14 | ACUAGAUGAGGAUAUGCAUGUUUUCAUGUUCUUCUAGAUUAACAUGAGGAUCACCCAUGUAGAAGGCGUCUUAU [Exclusion 2 - 30] (puzzle: Exclusion 2) | – | – | – | 18.4 | – | –
15 | GAGCCAUCGUGAGAUGGCUAAUUUACAUGAGGAUCACCCAUGUAGGAUAUCGAUUGCUUUGCAGUCGAGAAGGACAUGUUUAAU [JL ENG3 3.98] (Eterna round: R96, puzzle: Exclusion NG 3) | 71.6 | 36.2 | – | – | – | 28.3
16 | GAUCAUGCAGGAUAUACAUGGAACAUUAAAUCAUGAAUUUCACAUGAGGAUCACCCAUGUAGAAGGGCAUGAUC [Omei Ex2 A16] (Eterna round: R97, puzzle: Exclusion 2) | 32.5 | 31.6 | – | – | – | –
17 | AAAAACAGAGGAUAUGCACGCCGACCCGGGCGGGAAGUCGGACAUGAGGAUCACCCAUGUAGAAGGCUGAAAAA [Exclss2-VI] (puzzle: Exclusion 2) | – | – | 13.3 | 10.5 | 11.5 | –
18 | UGGUAACAUGAGGAUCACCCAUGUCAGGAUAUCAGUAAGAAUAGAGGAGAGUAGAAGAUGAGAAGGGACUAUAU [Excluse me! 8 - Jieux - Exclusion 1] (puzzle: Exclusion 1) | – | – | 20.5 | 33.4 | 30.8 | –
19 | GCCAGUGCAGGAUAUCUAUAACCCUACAUGAGGAUCACCCAUGUCCAGCGAAAGCUGGAGGGAGAAGGGCACUGGC [Fiskers Ex 5 - 27] (puzzle: Exclusion 5) | – | – | 15.5 | 17.6 | 21.5 | –
20 | CAUGAUUGACGAGGAUAUUGUACUACAUCACGACGAGAAGGCGUCUGUCACAUGAGGAUCACCCAUGUGAGACUGGUGAAUGAG [Ex NG1 #80] (Eterna round: R96, puzzle: Exclusion NG 1) | 31.6 | 26.2 | – | – | – | 16.7
21 | ACGUAACGAGCUUGAUCCAACAUGAGGAUCACCCAUGUGCUCGUCUUAUAACGUACUGUCACGUUAGUGAUAGUGCG [Sensor v3, turn-off variant 1 (MOD of Eli's v1-13 v.5)] (puzzle: Sensor v3, turn-off variant 1) | – | – | 971 | 369 | 1190 | –
22 | CGUACAAGCUUACUAUAGGACAUGAGGAUCACCCAUGUAAUUGACGUUGCAUACAAUCCGUGGAUCCCGGCUGCUCG [Eternabot (L1) Solution 15] (Eterna round: R97, puzzle: Sensor, turn-off variant 1) | 43 | 51.6 | – | – | – | –
23 | AACAUGAGGAUCACCCAUGUAAUGGACAGAUCACCGACCACGCAGGAUAUUAGGCCUCAAAUUCUUAAGAAGGGCGAGGAUGUG [Eternabot solution 49] (Eterna round: R96, puzzle: Exclusion NG 3) | 50.3 | 66.9 | – | – | – | 52
24 | GUAGAGUCAGGAUAUACGAGAUCGAAAGAUCGGCGAUCCAUACAUGAGGAUCACCCAUGUAGAAGGGACUCUAC [ChP 11-04-2015 #5] (Eterna round: R96, puzzle: Exclusion 2) | 177 | 19.1 | – | – | – | 14.8
25 | UGAGCUUGAGGAUAUACAAGCUUGAGCUGAAAAGUUCGAGUACAUGAGGAUCACCCAUGUAGAAGGCGAGUUCG [-26.7, -25.2 kcal, A 31% 1bis and 1] (Eterna round: R97, puzzle: Exclusion 2) | 39.7 | 26 | – | – | – | –
